The results in this text go back to the supplement of paper PMC12636428.

This data set concerns Saccharomyces cerevisiae. Kind of data set: transcriptional activation domain activity (GFP:mCherry ratio, weighted mean of sorted bins, harmonized to initial dataset scale) (arbitrary fluorescence ratio units); higher = stronger transcriptional activation. As to conditions: beta-estradiol 1 µM; induction time 4 h. How it is done:
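53-aa protein tiles (fungal proteins plus yeast TF control tiles) fused C-terminally to a DBD-estrogen-binding domain-mCherry synthetic TF, integrated in S. cerevisiae (URA3 locus) with a GFP reporter. Cells were induced with 1 uM beta-estradiol for 4 h at 30 C, FACS-sorted into 8 bins by GFP:mCherry ratio and barcodes sequenced. Activity is the read-weighted mean bin fluorescence (GFP:mCherry), averaged over barcodes (median 12); tiles under 50 reads were discarded. New active-learning values were harmonized by linear fit onto the scale of the initial (Hummel et al.) dataset. The assay saturates at low and high signal.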

Consider “AQEEFRTYIQEHLVAEQVIAADESSKDDHTIIQHFGRAPHVLWLLLVLMAIWL”, for which the “transcriptional activation domain activity” value came out at 78200.
The value for “AQKVKNESDTDERPAPVKKGRKAATSKVKDESEDEAPAPAPAKRGRRAAAVKA” was 47500; that for “AQLHHRTWLIHWSLFPFFNFEPAKETLTEMFFSPAYINTIQTNCPWILRYLAA” was 56700; that for “AQLLQRTWLIHWSLFVFFNHPRGRDYIVDLLFQPNYINSIQMACPWILRYLTA” was 45100.
In the case of “AQLLRLAHIHQIRHMVHIFSPVWYRPAVIYCFIAICFIVVLNIQALLSIVWSS”, the “transcriptional activation domain activity” value was found to be 45900.
With “AQLTLRAIVSSKEAGVIIGKGGKNVADLRDETGVKAGVSKVVQGVHDRVLTIT” the figure was 29600; with “AQPKTEAPKKVAKPRAKKGEAAEGEVKKGGRGKKRSAEGEEKAEEKAEDKPAE”, 30600.
The value for “AQPPAIEGKKSKKGEAPAAEVQKKEKKEKKPAEEGASKKGGSAKAAAAPAEDA” was 9790; that for “AQPSAGFGQPSTIGAKPNPFGAPAFGQPAQPAGPAFGQPSQPTTTAAFGQPSQ” was 29900.
With “AQQPQKKPGAPKPKGAVRAKSGCYTCRIRRKKCDENPNAEGACQTCVRLRLQC” the figure was 66200; with “AQRHLLKCIVFRTEKSLINFVPELTEAKARDIRMLHFYPPALQRAALILLVKT”, 47500.
Consider “AQSSPVRASPHPADSPSKPAAKPVSKPATAAPPAASKPTTAAAPKAAAAKPVS”, for which the “transcriptional activation domain activity” value is 27200.
As for “AQSTSVVLVFGSDEKKVKEIGEGLKSKLGIKGGGKGTRWSGKFTGVWKDAREG”, the “transcriptional activation domain activity” value amounted to 46700.
As to “ARAAAQNDDGTPKKGRGRPRKAAAAAATSDEEPAATTPKEPKKRGRKPKAVEP”, the “transcriptional activation domain activity” value is 36000.
With “ARAEELGARVSTGRRVVDVRCSSRGEEGSAAVAVCADGSRYAADLVVGADGVH” the figure was 51600; with “ARAYISLCWRMIVTKGLHRPPVSSVVDKALRKRQLKLLMVLYYNDFTNAVYSG”, 52300.
“ARDDGGGEGAAGETHQAQEARRVLDAGGRARAGAGALRAGPQQHPAPARALRP”: the “transcriptional activation domain activity” value turned out to be 14300.
With “ARDMLEDTFLIPKNLYAVHGPGISVKALEIADALVDVVNQYDQNAESEAWNFL” the figure was 112000; with “AREGARIRIVNRTVTVGKRTMSARSEVYDADNSRLVASGSHSKMTGSQPETRL”, 17700; with “AREIISAGWAKVHDSGSRRNANSQPEEEEEGGWKAKLRELQEEAKAAARGVWG”, 35300.
On to “ARFNLYLLSWLHVLSAKSASLGSSKAWWIRPAEIAMMSCYWYIFGYLLLWCTL”, for which the “transcriptional activation domain activity” value came out at 65800.
Turning to “ARGEKNPPMTQKDLATKVNEKPSVINDYESGRAVPDQKVLAKLERALGVKLRG”, the “transcriptional activation domain activity” value is 50400.
As for “ARGGEKKRREPGRGKRRTGGEERGGRRKTRRANAGETGGERRPRGATPGRKPA”, the “transcriptional activation domain activity” value is 38500.
On to “ARGMYLMVDVVANQFGILCSRADGTSIDDFDFSGLWPFSSSSYFHPMCWLYWL”, for which the “transcriptional activation domain activity” value came to 64000.
On to “ARGTTTPPPAPSTGSPSAPAAASRSSTGRSSATASCRTARCARASGRSAPGAG”, for which the “transcriptional activation domain activity” value was found to be 42900.
Turning to “ARKAFLLIEHMLELEGPPLIWNLLEILHNIMHLKQGRLFNMLIIHLMSLARSH”, the “transcriptional activation domain activity” value came out at 67400.
The value for “ARLLPDTIHLYILVVASLVNTLCVLFLDCCFLLLFFLFFYFFYPFLLFLFASF” was 41200; that for “ARLRALEIIRAGHEGGYDGFFWGAWIPGLFHGKMTDIIALLLTHWGNVRNPAS” was 65700.
On to “ARNGSSSGDILFSNGAHDMINNISTWTNNSVLDALNSKSILQTIFPQSQEPSS”, for which the “transcriptional activation domain activity” value stood at 58200.
With “ARQGVGMMQSNVVFFFFFSFSFLFLFFFFSFSFLFLFFFPFSIIPTCSSLAVF” the figure was 44800; with “ARQSDDDGQVKVYQRGSASLVAMLLTNLAPNETLIALINLIADRPWLKALYAL”, 80500.
With “ARTSDYSIAQWRFLTKLLLVHGRWNYNRICKYIVGTFWKEIVFYLTQALYQRY” the figure was 45400.
On to “ARVIRCNRSAELHVVNRLREVCEDQELRADSTALTSLVRTCRSDLRACINALQ”, for which the “transcriptional activation domain activity” value came to 59300.
The value for “ARVLGKKNTLEGLASTIRGTVRFVRETCYAVIYCMTRLDMQFYGFLELPGPLA” was 39600; that for “ARVLRWCLTMICLTVSALLGRVILFSSAALTLVEILHDDFGFSRNLVLKNLCN” was 90400; that for “ARVQVNFWFFLFVYYGFYNLTALIWITKVFNLYSLNWWPSMLGFPLTISLIAI” was 75700.
As to “ARVQVNFWFFLFVYYGFYNLTALMWITKVFNLYSLNWWPSTMGFPLTITLIAI”, the “transcriptional activation domain activity” value came to 55300.
The value for “ARWSVAKVFYILGRYYGLFYMIVQLYISLTLDLALNVQRLLLVLDLVWRCCLY” was 54000; that for “ARYIVKYKNGLIGKHFKILQHLGIFHLHNDLCGDNLFNLWKAAGGLGALLWFP” was 57600.
Consider “ARYVVQYKNSLIGKHFKMLQQLGIFHLHDLCSPLLFDLWKATGELGALLWFPE”, for which the “transcriptional activation domain activity” value came out at 66700.
With “ASAAASGASTPATAAPPGGLFGKTPATAAPAAATPAATKSLFPAAATTTAPAA” the figure was 45700; with “ASASASALPSSGFGATRGMKVRASVKKICEGCSSVKRRGRVFIICSKNQKHKQ”, 36400.
The value for “ASASASASRHKKDKDRKKKHKEKDGKSSKHKKHKSSSRRSRSRSRDKDRHGDR” was 33300; that for “ASASPARAPAAEVPPPVEIHVGDRCEVDRATGVARGTVRFVGEAEMPPPRPGA” was 42400; that for “ASASREKGKGKGREEEKKEGESKGKEKGRKEEEKGGEEKGGEEEDDEDEDEDE” was 30900.
For “ASDKQETSSQPEGGKEKEAAKEEKKPEPKKEEPKQESKPAPAPKQEKKPEPKK”, the “transcriptional activation domain activity” value was found to be 32600.
For “ASDSAPEPVKKKRGRPPKAQSDSEVVEKRPKKKPGPKPKPKAKAARKRKAPVS”, the “transcriptional activation domain activity” value worked out at 18900.
For “ASDYAIGQFRYLKRLILVHGEWSYARNANMIVNFFYKNILGIGVLWWFQIYCG”, the “transcriptional activation domain activity” value turned out to be 39100.
The value for “ASEAAVKEESASPAAKKSKKDKKPAKGSSDSVEAPVAEATPKTKKTAKANGAV” was 28000; that for “ASEAPKEEPKTESAPEPKQESAPESKKEAPAPAASKPEPPKQVEKKKESSSAP” was 34300.
The value for “ASEKKEASQRPPPAVEKKTVPKPSSKPENRPGPSKPVVPKADSKKEAPKPAPS” was 9920; that for “ASENSESSDSSDDEADVPSRKGNAASAVNTMADDDDDEEGGGGATTAAAARTK” was 16900; that for “ASEPVKEETKPPVEEHASEPVEEETKPVEEEIKPVEEHASEPVKEETKPAEEH” was below 6570.
Take “ASFLVLRDIRLLDCFSVLASCGYVSLFPLIYTCDEWLIKVVYTLLWYIIYYFS”: the “transcriptional activation domain activity” value worked out at 84300.
On to “ASGAAAPSGTPSLFGAKPAGTTAAPATSTPAGGLFGAASSAAPAASATTPTTG”, for which the “transcriptional activation domain activity” value worked out at 47400.
